The assay has as its system B16.F10 tumors. The assay is described as follows: Tumor growth of B16.F10 tumors subcutaneously implanted in mice. The note with it: ISF35 combination therapy versus agonist CD40 antibody combination therapy; B16.F10 tumors subcutaneously implanted in C54/BL6 mice. Format: in vivo. From the text: Tumor growth curves of B16.F10 tumors subcutaneously implanted in C54/BL6 mice. Individual animal tumor growth curves are shown.

B1: ISF35: chimeric CD154 polypeptide; domain IV of human CD154 linked to domains I, II and III of human CD154; SEQ ID NO 6 (protein)
chain: MIETYNQTSPRSAATGLPISMKIFMYLLTVFLITQMIGSALFAVYLHRRLDKIEDERNLHEDFVFMKTIQRCNTGERSLSLLNCEEIKSQFEGFVKDIMLNKEETKKDEDPQIAAHVVSEANSNAASVLQWAKKGYYTMKSNLVTLENGKQLTVKRQGLYYIYAQVTFCSNREASSQAPFIVGLWLKPSSGSERILLKAANTHSSSQLCEQQSIHLGGVFELQPGASVFVNVTDPSQVSHGTGFTSFGLLKL
modifications: ISF35 (MEM40)
For B1, the “Tumor growth curves (activity of combination therapy)” value is “Superior activity”.

Values taken from patent US12171803B2, “Methods of CD40 and toll like receptor immune activation” (MEMGEN, INC., priority 2017, dated 2024).
